Results reported in PMC2697320, “Identification of the high affinity binding site in the Streptococcus intermedius toxin intermedilysin for its membrane receptor, the human complement regulator CD59” (Molecular Immunology, 2009).

Target: T1, Recombinant soluble CD59 comprising amino acids 1-76 with an 11 amino acid Ser/Gly linker and termin (human, terminal Cys reduced with TCEP and thiol-coupled to the PDEA-modified CM5 chip)
T1 construct: also called recombinant CD59; immobilised CD59
Experiment: SPR
Details: both partners purified

B1: ILY peptide (peptide containing ILY residues 461-469 with flanking residues and an added C-terminal cysteine) (peptide)
chain: AWEPWRLIYSKNDLPLVPC
Kd: 4.92 µM
